From US10562947B2, “Compositions and methods for preventing or treating diseases, conditions or processes characterized by aberrant fibroblast proliferation and extracellular matrix deposition” (MOERAE MATRIX, INC., priority 2011, dated 2020)

What was measured:
Experiment in all cases: Kinase Profiling Assay
Assay type in all cases: biochemical
Settings in all cases: 100 μM peptide
[1] = biological target: SAPK2a(h) (Homo sapiens, UniProt Q16539)
Procedure, shortened: (§1)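 Read-out is kinase activity, measured twice per kinase, across 266 human kinases exposed to MK2 inhibitory peptides in a specificity screen.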

[2] = biological target: EphA2(h) (Homo sapiens, UniProt P29317)
Procedure, shortened: as §1

[3] = biological target: T1, Rse(h) (Homo sapiens, UniProt Q06418)
T1 construct: purchased Millipore (IC50 Profiler Express service)
T1 sequence (Q06418 41-890): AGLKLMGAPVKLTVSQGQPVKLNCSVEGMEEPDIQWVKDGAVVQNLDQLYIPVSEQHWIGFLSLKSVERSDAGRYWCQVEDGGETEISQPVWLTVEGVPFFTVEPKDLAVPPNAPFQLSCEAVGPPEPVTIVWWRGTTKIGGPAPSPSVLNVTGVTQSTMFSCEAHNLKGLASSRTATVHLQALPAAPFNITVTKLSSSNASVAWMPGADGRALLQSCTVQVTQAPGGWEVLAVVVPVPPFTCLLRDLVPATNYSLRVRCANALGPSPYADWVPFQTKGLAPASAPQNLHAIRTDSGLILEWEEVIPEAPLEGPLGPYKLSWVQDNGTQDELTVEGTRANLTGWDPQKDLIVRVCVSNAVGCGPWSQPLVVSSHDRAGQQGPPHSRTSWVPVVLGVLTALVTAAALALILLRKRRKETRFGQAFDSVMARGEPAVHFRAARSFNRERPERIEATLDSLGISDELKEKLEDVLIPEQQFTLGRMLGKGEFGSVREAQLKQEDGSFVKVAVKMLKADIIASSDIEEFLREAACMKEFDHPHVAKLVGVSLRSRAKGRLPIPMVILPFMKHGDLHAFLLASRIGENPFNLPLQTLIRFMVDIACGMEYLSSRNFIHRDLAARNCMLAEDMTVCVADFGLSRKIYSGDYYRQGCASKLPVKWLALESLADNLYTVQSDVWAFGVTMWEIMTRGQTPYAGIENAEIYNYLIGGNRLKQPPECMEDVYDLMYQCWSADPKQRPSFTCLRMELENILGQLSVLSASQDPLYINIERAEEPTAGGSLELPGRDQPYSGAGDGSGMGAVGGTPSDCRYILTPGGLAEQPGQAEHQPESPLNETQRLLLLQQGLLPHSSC
Procedure, shortened: as §1

[4] = biological target: T2, SGK(h) (Homo sapiens, UniProt O00141)
T2 sequence (O00141 1-431): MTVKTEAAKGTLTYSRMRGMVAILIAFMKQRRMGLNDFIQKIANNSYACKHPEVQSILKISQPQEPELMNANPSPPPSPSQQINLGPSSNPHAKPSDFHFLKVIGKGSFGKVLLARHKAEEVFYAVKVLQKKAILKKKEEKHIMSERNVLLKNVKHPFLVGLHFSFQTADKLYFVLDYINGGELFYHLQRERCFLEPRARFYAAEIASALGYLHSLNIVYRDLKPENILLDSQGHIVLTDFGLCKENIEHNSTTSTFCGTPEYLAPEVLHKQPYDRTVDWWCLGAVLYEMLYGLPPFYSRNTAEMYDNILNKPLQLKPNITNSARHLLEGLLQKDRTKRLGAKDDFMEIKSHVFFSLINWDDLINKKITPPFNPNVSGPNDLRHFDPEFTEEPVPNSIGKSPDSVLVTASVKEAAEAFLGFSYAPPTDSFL
Procedure, shortened: as §1

[5] = biological target: SRPK1(h) (Homo sapiens, UniProt Q96SB4)
Procedure, shortened: as §1

[6] = biological target: Tie2(h) (Homo sapiens, UniProt Q02763)
Procedure, shortened: as §1

[7] = biological target: EphA5(h) (Homo sapiens, UniProt P54756)
Procedure, shortened: as §1

[8] = biological target: NEK6(h) (Homo sapiens, UniProt Q9HC98)
Procedure, shortened: as §1

[9] = biological target: T3, Tec(h) activated (Homo sapiens, UniProt P42680)
T3 sequence (P42680 1-631): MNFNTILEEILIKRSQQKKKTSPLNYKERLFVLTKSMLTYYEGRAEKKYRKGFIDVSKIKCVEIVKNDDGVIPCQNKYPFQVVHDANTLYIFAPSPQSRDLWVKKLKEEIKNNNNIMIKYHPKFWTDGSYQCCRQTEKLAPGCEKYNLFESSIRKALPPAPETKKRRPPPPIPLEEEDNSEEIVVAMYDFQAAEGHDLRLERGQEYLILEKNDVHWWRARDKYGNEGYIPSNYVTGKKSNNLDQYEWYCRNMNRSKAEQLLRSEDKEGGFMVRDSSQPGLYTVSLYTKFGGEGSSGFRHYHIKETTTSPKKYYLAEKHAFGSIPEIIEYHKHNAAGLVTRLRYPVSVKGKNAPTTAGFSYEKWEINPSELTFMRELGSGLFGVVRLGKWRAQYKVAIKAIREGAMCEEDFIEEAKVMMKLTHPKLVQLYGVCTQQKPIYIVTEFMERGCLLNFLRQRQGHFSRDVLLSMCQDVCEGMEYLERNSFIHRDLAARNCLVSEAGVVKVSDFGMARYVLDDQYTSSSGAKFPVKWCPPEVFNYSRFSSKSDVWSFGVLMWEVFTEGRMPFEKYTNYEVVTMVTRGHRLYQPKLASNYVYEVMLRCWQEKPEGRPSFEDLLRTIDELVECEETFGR
Procedure, shortened: as §1

[10] = biological target: T4, GSK3α(h) (Homo sapiens, UniProt P49840)
T4 construct: purchased Millipore
Procedure, shortened: as §1

[11] = biological target: Fer(h) (Homo sapiens, UniProt P16591)
Procedure, shortened: as §1

[12] = biological target: T5, Hck(h) (Homo sapiens, UniProt P08631)
T5 construct: purchased Millipore
Procedure, shortened: as §1

[13] = biological target: AMPKα1(h) (Homo sapiens, UniProt Q13131)
Procedure, shortened: as §1

[14] = biological target: FGFR1(h) (Homo sapiens, UniProt P11362)
Procedure, shortened: as §1

[15] = biological target: Flt1(h) (Homo sapiens, UniProt P17948)
Procedure, shortened: as §1

Chain of SRPK1(h) (Q96SB4 whole entry): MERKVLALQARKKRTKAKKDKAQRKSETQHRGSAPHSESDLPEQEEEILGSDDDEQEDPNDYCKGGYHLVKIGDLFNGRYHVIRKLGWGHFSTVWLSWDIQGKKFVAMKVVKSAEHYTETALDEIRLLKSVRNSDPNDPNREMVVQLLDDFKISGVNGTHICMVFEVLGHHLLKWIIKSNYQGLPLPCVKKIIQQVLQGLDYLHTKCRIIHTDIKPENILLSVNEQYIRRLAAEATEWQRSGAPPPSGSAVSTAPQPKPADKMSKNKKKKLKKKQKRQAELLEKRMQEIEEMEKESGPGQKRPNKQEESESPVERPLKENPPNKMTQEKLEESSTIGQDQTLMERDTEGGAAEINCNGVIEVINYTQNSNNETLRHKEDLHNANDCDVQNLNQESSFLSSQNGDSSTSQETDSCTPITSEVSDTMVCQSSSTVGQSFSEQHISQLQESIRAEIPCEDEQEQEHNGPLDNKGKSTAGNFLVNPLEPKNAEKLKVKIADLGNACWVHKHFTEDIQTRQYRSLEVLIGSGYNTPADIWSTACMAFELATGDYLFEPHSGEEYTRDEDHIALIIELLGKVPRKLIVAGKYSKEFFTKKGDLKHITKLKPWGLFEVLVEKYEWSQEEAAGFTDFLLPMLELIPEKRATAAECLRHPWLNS
Chain of SAPK2a(h) (Q16539 whole entry): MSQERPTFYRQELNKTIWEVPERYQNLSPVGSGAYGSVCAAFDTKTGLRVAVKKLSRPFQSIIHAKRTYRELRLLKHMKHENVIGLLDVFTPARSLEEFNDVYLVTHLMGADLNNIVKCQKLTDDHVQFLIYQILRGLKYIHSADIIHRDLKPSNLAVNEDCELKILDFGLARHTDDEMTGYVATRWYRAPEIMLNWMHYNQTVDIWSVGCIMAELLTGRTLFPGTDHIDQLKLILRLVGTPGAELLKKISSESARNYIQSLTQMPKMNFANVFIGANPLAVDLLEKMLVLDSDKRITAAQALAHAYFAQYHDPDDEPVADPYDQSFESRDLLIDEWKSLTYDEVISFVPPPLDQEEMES
Chain of EphA5(h) (P54756 25-1037): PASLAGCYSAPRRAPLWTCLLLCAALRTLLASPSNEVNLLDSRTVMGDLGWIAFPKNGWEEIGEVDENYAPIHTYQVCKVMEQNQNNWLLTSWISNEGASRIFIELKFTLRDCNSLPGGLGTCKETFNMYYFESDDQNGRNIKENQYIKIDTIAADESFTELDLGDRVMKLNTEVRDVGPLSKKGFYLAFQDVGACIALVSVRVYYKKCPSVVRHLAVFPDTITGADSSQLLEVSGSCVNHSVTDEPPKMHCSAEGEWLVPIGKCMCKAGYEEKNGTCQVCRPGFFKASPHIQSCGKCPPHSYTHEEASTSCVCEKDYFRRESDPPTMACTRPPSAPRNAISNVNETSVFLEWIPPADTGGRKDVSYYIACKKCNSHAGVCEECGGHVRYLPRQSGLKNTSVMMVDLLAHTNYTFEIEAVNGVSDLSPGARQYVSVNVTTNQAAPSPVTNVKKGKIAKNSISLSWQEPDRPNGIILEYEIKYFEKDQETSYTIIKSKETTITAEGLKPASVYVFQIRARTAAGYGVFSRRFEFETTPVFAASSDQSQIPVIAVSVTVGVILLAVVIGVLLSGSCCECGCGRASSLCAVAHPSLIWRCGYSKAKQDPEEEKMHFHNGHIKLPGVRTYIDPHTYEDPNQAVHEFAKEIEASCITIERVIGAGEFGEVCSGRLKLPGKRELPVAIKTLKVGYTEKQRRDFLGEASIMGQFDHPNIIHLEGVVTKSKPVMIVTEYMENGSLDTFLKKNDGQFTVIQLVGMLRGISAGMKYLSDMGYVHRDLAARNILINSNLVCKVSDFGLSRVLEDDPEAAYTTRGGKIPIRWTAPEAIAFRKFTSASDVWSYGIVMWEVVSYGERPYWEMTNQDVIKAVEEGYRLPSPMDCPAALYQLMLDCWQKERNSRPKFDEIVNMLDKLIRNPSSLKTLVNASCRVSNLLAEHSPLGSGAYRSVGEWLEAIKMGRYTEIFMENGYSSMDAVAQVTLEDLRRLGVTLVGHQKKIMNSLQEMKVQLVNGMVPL
Chain of Tie2(h) (Q02763 23-1124): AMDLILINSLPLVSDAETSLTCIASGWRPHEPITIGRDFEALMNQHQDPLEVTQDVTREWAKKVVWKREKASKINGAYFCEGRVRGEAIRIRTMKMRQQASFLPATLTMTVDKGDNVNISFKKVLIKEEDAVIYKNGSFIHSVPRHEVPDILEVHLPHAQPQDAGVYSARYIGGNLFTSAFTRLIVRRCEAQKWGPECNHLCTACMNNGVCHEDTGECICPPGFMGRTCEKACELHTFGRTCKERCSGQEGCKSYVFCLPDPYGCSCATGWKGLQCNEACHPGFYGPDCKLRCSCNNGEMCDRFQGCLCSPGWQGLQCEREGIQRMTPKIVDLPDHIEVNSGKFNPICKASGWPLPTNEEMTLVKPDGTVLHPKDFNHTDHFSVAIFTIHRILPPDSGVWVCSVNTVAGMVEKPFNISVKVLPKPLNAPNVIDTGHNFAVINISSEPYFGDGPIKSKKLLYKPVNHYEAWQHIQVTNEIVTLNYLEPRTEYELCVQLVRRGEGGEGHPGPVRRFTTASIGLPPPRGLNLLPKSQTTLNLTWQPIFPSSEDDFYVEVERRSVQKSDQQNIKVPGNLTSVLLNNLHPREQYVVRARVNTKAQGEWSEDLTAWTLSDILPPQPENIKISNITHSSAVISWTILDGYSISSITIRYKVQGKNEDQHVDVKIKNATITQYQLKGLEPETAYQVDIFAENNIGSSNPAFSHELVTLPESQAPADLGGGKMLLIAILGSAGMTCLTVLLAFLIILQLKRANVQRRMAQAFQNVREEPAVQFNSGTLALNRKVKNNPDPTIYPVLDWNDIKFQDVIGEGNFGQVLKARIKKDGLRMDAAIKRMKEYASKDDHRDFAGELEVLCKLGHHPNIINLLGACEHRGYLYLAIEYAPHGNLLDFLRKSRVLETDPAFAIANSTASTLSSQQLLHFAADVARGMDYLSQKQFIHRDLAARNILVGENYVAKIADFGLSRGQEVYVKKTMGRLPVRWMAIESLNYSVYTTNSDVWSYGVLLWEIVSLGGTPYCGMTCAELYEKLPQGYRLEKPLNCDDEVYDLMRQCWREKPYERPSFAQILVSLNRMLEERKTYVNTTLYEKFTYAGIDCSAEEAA
Chain of Fer(h) (P16591 whole entry): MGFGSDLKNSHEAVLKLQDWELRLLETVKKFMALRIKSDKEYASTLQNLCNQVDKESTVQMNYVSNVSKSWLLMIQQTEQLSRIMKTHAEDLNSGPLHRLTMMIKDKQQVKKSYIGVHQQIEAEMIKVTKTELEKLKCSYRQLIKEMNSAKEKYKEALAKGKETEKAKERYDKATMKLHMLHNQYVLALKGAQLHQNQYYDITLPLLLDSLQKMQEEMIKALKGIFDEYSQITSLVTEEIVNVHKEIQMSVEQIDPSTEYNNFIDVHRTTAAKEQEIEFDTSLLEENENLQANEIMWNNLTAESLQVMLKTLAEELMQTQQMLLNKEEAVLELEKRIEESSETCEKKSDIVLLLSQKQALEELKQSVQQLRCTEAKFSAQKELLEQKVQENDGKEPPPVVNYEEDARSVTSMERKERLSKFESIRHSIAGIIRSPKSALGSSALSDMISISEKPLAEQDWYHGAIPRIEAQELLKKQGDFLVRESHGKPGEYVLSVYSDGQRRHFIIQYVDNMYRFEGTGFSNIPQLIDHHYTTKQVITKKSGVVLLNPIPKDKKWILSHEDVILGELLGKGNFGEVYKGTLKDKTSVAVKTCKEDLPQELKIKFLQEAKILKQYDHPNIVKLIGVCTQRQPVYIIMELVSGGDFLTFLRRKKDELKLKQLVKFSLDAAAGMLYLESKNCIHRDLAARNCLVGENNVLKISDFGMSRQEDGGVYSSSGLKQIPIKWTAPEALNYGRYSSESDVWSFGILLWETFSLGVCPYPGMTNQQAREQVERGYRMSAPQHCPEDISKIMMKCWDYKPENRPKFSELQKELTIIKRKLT
T5 sequence (P08631 whole entry): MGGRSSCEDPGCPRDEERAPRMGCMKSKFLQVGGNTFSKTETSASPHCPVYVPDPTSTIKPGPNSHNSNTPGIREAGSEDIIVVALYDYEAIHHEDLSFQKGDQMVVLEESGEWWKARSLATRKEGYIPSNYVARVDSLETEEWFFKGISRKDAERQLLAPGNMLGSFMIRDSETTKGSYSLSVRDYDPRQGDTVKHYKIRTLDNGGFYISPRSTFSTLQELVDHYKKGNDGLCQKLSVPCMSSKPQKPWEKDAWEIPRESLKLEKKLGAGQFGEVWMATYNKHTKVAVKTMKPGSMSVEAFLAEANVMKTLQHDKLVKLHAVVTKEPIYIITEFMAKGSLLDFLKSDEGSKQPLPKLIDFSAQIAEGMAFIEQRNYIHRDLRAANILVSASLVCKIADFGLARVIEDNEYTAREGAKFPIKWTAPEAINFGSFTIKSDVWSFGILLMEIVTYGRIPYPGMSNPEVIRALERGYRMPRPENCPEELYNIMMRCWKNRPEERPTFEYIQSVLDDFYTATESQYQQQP
Chain of NEK6(h) (Q9HC98 whole entry): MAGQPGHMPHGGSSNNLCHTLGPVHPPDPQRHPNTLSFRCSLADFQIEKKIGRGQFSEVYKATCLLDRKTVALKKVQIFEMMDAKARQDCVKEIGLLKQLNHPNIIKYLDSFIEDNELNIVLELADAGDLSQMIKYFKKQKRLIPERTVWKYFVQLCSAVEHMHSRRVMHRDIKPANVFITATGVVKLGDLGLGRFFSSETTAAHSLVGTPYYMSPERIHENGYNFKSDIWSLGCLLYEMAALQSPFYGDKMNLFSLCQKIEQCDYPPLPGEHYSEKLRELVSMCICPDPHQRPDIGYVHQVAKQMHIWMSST

| Sequence | SAPK2a(h) % activity [1] | EphA2(h) % activity [2] | Rse(h) % activity [3] | SGK(h) % activity [4] | SRPK1(h) % activity [5] | Tie2(h) % activity [6] | EphA5(h) % activity [7] | NEK6(h) % activity [8] | Tec(h) activated % activity [9] | GSK3α(h) % activity [10] | Fer(h) % activity [11] | Hck(h) % activity [12] | AMPKα1(h) % activity [13] | FGFR1(h) % activity [14] | Flt1(h) % activity [15] |
| --- | --- | --- | --- | --- | --- | --- | --- | --- | --- | --- | --- | --- | --- | --- | --- |
| KAFAKLAARLYRKALARQLGVAA [MMI-0400] | 85% | 17% | 89% | 54% | 96% | 21% | 24% | 85% | 29% | 164% | 108% | 72% | 87% | 59% | 48% |
| YARAAARQARAKALNRQLGVA (Mammalian) [MMI-0200] |  | 95% | 88% |  | 93% | 53% | 123% | 98% | 77% |  | 101% |  | 108% | 97% | 96% |
| FAKLAARLYRKALARQLGVAA [MMI-0300] | 90% | 31% | 88% | 48% | 90% | 26% | 18% | 82% | 56% | 157% | 130% | 72% | 71% | 55% | 69% |
| HRRIKAWLKKIKALARQLGVAA (Mammalian) [MMI-0500] | 52% |  | 63% | 2% | 80% | 22% | 42% | 49% | 33% | 175% | 196% | 78% | 35% | 18% | 27% |
